Assay results: patent US20230137562A1, “TAU AGGREGATION INHIBITORS” (priority 2017, published 2023)
“And” between values parts separate entries of the source, which are not always exact repeats. Equal values may be shown once. Square brackets hold non-standard residues; d marks the D form. Ends that are not written are not given here. Peptide text beside a SMILES is read from it. NMeR = CN[C@@H](CCCNC(=N)N)C(=O)O; hArg = N=C(N)NCCCC[C@H](N)C(=O)O; Orn = NCCC[C@H](N)C(=O)O

Target: T1, Ac-VQIINK-NH2
T1 peptide: Ac-VQIINK-NH2
Test: cell-based or functional assay

Point of comparison: RLRIWIW, “IC50 (µM), VQIINK Inhibition (ThT)” value 2.04 µM. Against it:
- WWIRIRYWL — 2.4-fold higher, 4.88 µM
- FRIRIRW — 2-fold higher, 4.04 µM
- WYRIWVRYW — within 1.5-fold, 2.22 µM
- WRIWIRRW — 1.9-fold higher, 3.85 µM
- LRIRIRW — 2.1-fold higher, 4.31 µM
- RIWLRLW — within 1.5-fold, 2.01 µM
- RYRIWIW — 2.8-fold higher, 5.74 µM
- WRLRIHW — 1.6-fold higher, 3.2 µM
- WRIWLRYW — within 1.5-fold, 2.32 µM
- WRIRLWYW — within 1.5-fold, 1.98 µM
- WRIFIRW — 4.5-fold higher, 9.13 µM
- WWIRIRYWR — within 1.5-fold, 1.79 µM
- WYRIRLRYW — within 1.5-fold, 2.98 µM
- RRIWIRYW — 2.8-fold higher, 5.61 µM
- WY[Orn]IWI[Orn]W [WYOIWIOW] — within 1.5-fold, 2.45 µM
- WRIRIRL — 3.6-fold higher, 7.38 µM
- WKIKLKYW — within 1.5-fold, 2.82 µM
- WKVWVRYW — 2.4-fold higher, 4.93 µM
- WRITIRW — within 1.5-fold, 2.64 µM
- WWIRIRYW — within 1.5-fold, 1.92 µM
- WRLKVRWW — 1.6-fold higher, 3.34 µM
- WY[hArg]L[hArg]I[hArg]W [WY(hR)L(hR)I(hR)W] — within 1.5-fold, 2.95 µM
- RWRIWIW — 1.7-fold higher, 3.44 µM
- WRIRLWYR — within 1.5-fold, 1.7 µM
- RIWIRLW — within 1.5-fold, 2.31 µM
- WAIRIRW — within 1.5-fold, 1.94 µM
- RIRIFIF — within 1.5-fold, 2.87 µM
- WRI[NMeR]IRW [WRI(NMe)RIRW] — 1.9-fold higher, 3.84 µM
- WRIQIRW — within 1.5-fold, 2.17 µM
- WWIRLRYW — 1.6-fold higher, 3.24 µM
- WRIRLYWW — within 1.5-fold, 2.35 µM
- WLKVQVRLW — within 1.5-fold, 1.71 µM
- LRIRIRL — 8.7-fold higher, 17.8 µM
- HRIWIRYW — 2.1-fold higher, 4.3 µM

For WRIRIRYW, the “IC50 (µM), VQIINK Inhibition (ThT)” value was 2.44 µM and 3.77 µM.

target: His-Tau40P301L Tau (UniProt P10636-8 1-441); test: cell-based or functional assay
Sequence (P10636 other isoform, or with tags, fused parts or gaps limits assumed): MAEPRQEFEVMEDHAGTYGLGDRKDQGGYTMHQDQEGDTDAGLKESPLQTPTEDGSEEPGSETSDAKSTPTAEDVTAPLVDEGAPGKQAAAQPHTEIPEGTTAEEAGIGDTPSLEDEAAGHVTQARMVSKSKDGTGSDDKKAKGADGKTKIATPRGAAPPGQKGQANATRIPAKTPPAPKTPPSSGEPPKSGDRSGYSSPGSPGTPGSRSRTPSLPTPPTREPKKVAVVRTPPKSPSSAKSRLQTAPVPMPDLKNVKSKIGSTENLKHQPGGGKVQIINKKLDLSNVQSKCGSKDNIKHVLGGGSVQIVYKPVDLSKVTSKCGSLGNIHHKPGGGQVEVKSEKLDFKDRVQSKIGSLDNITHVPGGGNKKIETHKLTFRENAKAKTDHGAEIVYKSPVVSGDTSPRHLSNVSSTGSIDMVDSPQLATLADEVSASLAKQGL

For WWIRIRYWL, the “IC50 (µM), Tau40 assay (ThT)” value was 1.2 µM and 1.31 µM.
WYRIWVRYW was tested, and the “IC50 (µM), Tau40 assay (ThT)” value was 1.86 µM and 2.08 µM.
For WWIRIRYWR, the “IC50 (µM), Tau40 assay (ThT)” value was 1.48 µM and 1.58 µM.
In the case of WYRIRLRYW, the “IC50 (µM), Tau40 assay (ThT)” value is reported as 1.13 µM and 1.21 µM.
In the case of WKIKLKYW, the “IC50 (µM), Tau40 assay (ThT)” value is reported as 1.3 µM and 1.32 µM.
In the case of WWIRIRYW, the “IC50 (µM), Tau40 assay (ThT)” value is reported as 1.1 µM and 1.38 µM.
For WRIQIRW, the “IC50 (µM), Tau40 assay (ThT)” value was 1.7 µM and 2.34 µM.
In the case of WWIRLRYW, the “IC50 (µM), Tau40 assay (ThT)” value is reported as 1.32 µM and 1.53 µM.
For WRIRIRYW, the “IC50 (µM), Tau40 assay (ThT)” value was 1.22 µM and 1.33 µM and 1.37 µM.

Point of comparison: WLKVQVRLW, “IC50 (µM), Tau40 assay (ThT)” value 1.86 µM. Against it:
- FRIRIRW — within 1.5-fold, 1.47 µM
- WRIWIRRW — within 1.5-fold, 1.68 µM
- LRIRIRW — within 1.5-fold, 2.07 µM
- RIWLRLW — within 1.5-fold, 2.14 µM
- RYRIWIW — within 1.5-fold, 1.61 µM
- WRLRIHW — within 1.5-fold, 1.82 µM
- WRIWLRYW — within 1.5-fold, 2.05 µM
- WRIRLWYW — 2.7-fold lower, 0.68 µM
- WRIFIRW — within 1.5-fold, 2.01 µM
- RRIWIRYW — within 1.5-fold, 1.96 µM
- WY[Orn]IWI[Orn]W [WYOIWIOW] — within 1.5-fold, 1.92 µM
- WRIRIRL — within 1.5-fold, 1.52 µM
- WKVWVRYW — within 1.5-fold, 2.09 µM
- WRITIRW — within 1.5-fold, 1.99 µM
- WRLKVRWW — 1.5-fold lower, 1.24 µM
- WY[hArg]L[hArg]I[hArg]W [WY(hR)L(hR)I(hR)W] — within 1.5-fold, 1.74 µM
- RWRIWIW — 2.4-fold lower, 0.76 µM
- WRIRLWYR — within 1.5-fold, 1.31 µM
- RIWIRLW — within 1.5-fold, 2.06 µM
- WAIRIRW — within 1.5-fold, 1.72 µM
- RIRIFIF — within 1.5-fold, 1.96 µM
- RLRIWIW — 1.5-fold lower, 1.21 µM
- WRI[NMeR]IRW [WRI(NMe)RIRW] — 3.3-fold lower, 0.57 µM
- WRIRLYWW — 1.6-fold lower, 1.15 µM
- LRIRIRL — within 1.5-fold, 1.82 µM
- HRIWIRYW — within 1.5-fold, 1.87 µM

target: T2, Ac-VQIINK-NH2 (Homo sapiens, UniProt P10636); test: Inhibition of VQIINK aggregation with peptide inhibitors (ThT); format: biochemical
T2 construct: made in house; host or cells: chemical peptide synthesis
Method: The following describes the experimental method used to evaluate the IC50 of aggregation of VQIINK (SEQ ID NO:220) inhibition by the peptide inhibitors described above. The peptide sequence comprising Ac-VQIINK-NH2 (C-terminal amidated (SEQ ID NO: 220)) is prepared using the peptide synthetic method described above. The Ac-VQIINK-NH2 (SEQ ID NO: 220) is stored at 10 mM in 100% DMSO at −80° C., and an aliquot volume sufficient for a single aggregation assay plate is removed. The stock aggregation buffer (5×) is prepared with the following: 250 mM NaPhosphate (pH 8.0), 125 mM KCl, and 500 micromolar ThioflavinT (ThT). The aggregation assay is conducted with shaking, at room temperature, on a plate reader model FLX-800 by BioTek. Water for primary Ac-VQIINK-NH2 (SEQ ID NO: 220) dissolution is cooled to 4 degrees Celsius (7.245 milliliters). Buffer is added from the 5×stock (40 microliters, final volume in assay plate is 130 microliters, final buffer concentrations 50 millimolar NaPO4 (pH 8.0); 25 milllimolar KCl; and 100 micromolar ThioflavinT). The assay plate is cooled to 4 degrees Celsius. The Ac-VQIINK-NH2 (105 microliters (SEQ ID NO: 220)) is added to the chilled water (final volume of 7.350 milliliters), this is added into a pooled reservoir, and using a 96-channel robotic pipettor, 70 microliters diluted Ac-VQIINK-NH2 (SEQ ID NO: 220) is added to the assay plate to achieve a final concentration of 50 micromolar in a 200 microliter final assay volume (per well). Data is acquired using Magellan software. The calculation of IC50 is done by an automatic algorithm developed using the R statistical programing language. Briefly, the algorithm uses data exported in excel format from the plate reader to average the cumulative ThT fluorescence for each inhibitor concentration in the 6-point dose response. The IC50 is calculated as the midpoint of a sigmoid curve fitted to the correlation of normalized ThT fluorescence and inhibitor concentration.

Point of comparison: `CC[C@H](C)[C@H](N)C(=O)N[C@@H](Cc1c[nH]c2ccccc12)C(=O)N[C@H](C(=O)N[C@@H](CCCNC(=N)N)C(=O)N[C@@H](CC(C)C)C(=O)N[C@@H](Cc1c[nH]c2ccccc12)C(=O)O)[C@@H](C)CC` [compound 50] (H-IWIRLW-OH), IC50 2120 nM. Against it:
- CC[C@H](C)[C@H](NC(=O)[C@H](CCCNC(=N)N)NC(=O)[C@@H](N)Cc1c[nH]c2ccccc12)C(=O)N[C@@H](Cc1c[nH]c2ccccc12)C(=O)N[C@@H](CC(C)C)C(=O)N[C@@H](CCCNC(=N)N)C(=O)N[C@@H](Cc1ccc(O)cc1)C(=O)N[C@@H](Cc1c[nH]c2ccccc12)C(=O)O [compound 17] (H-WRIWLRYW-OH) — within 1.5-fold, 2320 nM
- CC[C@H](C)[C@H](NC(=O)[C@H](CCCNC(=N)N)NC(=O)[C@@H](NC(=O)[C@@H](N)CCCNC(=N)N)[C@@H](C)CC)C(=O)N[C@@H](Cc1c[nH]c2ccccc12)C(=O)N[C@@H](CC(C)C)C(=O)N[C@@H](Cc1c[nH]c2ccccc12)C(=O)O [compound 26] (H-RIRIWLW-OH) — within 1.5-fold, 1930 nM
- CC[C@H](C)[C@H](NC(=O)[C@H](CCC(N)=O)NC(=O)[C@@H](NC(=O)[C@H](CCCNC(=N)N)NC(=O)[C@@H](N)Cc1c[nH]c2ccccc12)[C@@H](C)CC)C(=O)N[C@@H](CCCNC(=N)N)C(=O)N[C@@H](Cc1c[nH]c2ccccc12)C(=O)O [compound 69] (H-WRIQIRW-OH) — within 1.5-fold, 2170 nM
- CC[C@H](C)[C@H](NC(=O)[C@H](C)NC(=O)[C@@H](N)Cc1c[nH]c2ccccc12)C(=O)N[C@@H](CCCNC(=N)N)C(=O)N[C@H](C(=O)N[C@@H](CCCNC(=N)N)C(=O)N[C@@H](Cc1c[nH]c2ccccc12)C(=O)O)[C@@H](C)CC [compound 124] (H-WAIRIRW-OH) — within 1.5-fold, 1940 nM
- CC[C@H](C)[C@H](NC(=O)[C@H](Cc1ccccc1)NC(=O)[C@@H](NC(=O)[C@H](CCCNC(=N)N)NC(=O)[C@@H](N)Cc1c[nH]c2ccccc12)[C@@H](C)CC)C(=O)N[C@@H](CCCNC(=N)N)C(=O)N[C@@H](Cc1c[nH]c2ccccc12)C(=O)O [compound 136] (H-WRIFIRW-OH) — 4.3-fold higher, 9130 nM
- CC[C@H](C)[C@H](NC(=O)[C@H](CCCNC(=N)N)NC(=O)[C@@H](NC(=O)[C@H](CCCNC(=N)N)NC(=O)[C@@H](N)CC(C)C)[C@@H](C)CC)C(=O)N[C@@H](CCCNC(=N)N)C(=O)N[C@@H](Cc1c[nH]c2ccccc12)C(=O)O [compound 139] (H-LRIRIRW-OH) — 2-fold higher, 4310 nM
